Patent publication US20240317859A1 (FOUNDATION FOR BIOMEDICAL RESEARCH AND INNOVATION AT KOBE, published 2024)

T1: substituted human PD-1, domain #1 replaced with the corresponding amino acid sequence of mouse PD-1 (human; mouse, UniProt Q15116 25-288)
T1 construct: also called PD-1 when domain #1 is replaced
T1 chain: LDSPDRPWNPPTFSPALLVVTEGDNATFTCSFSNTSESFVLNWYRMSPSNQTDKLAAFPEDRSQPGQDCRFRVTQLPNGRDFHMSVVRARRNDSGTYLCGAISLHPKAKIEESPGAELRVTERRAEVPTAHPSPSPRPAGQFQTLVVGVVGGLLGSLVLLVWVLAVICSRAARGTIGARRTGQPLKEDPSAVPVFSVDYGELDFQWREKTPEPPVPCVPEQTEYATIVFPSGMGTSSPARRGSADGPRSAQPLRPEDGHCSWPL

T2: substituted human PD-1, domain #6 replaced with the corresponding amino acid sequence of mouse PD-1 (human; mouse, UniProt Q15116 25-288)
T2 construct: Human limits of domain #6 (109-120) are printed; also called PD-1 if domain #6 is replaced
T2 chain: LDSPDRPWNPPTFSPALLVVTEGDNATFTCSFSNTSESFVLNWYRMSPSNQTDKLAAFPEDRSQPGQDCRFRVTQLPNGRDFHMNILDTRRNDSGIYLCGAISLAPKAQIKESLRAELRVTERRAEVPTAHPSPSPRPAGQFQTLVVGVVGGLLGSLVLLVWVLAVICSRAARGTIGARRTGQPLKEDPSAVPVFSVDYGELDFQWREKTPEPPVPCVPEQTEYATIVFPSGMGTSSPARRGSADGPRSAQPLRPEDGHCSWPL

T3: substituted human PD-1, domain #7 replaced with the corresponding amino acid sequence of mouse PD-1 (human; mouse, UniProt Q15116 25-288)
T3 construct: Human limits of domain #7 (38-48) are printed; also called PD-1 if domain #7 is replaced
T3 chain: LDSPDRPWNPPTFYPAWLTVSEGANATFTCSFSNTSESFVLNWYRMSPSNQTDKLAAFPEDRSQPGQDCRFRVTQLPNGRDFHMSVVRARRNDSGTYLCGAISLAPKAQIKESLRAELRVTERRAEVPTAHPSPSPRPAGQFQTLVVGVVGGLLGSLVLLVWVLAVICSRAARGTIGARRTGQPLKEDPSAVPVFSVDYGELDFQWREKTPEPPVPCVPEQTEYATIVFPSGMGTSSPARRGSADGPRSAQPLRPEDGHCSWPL


Columns and labels:
[1] = molecular target: T4, human PD-1 (wild-type), expressed on cells (human, UniProt Q15116 25-288); assay: flow cytometry on PD-1-expressing cells
T4 construct: also called hPD-1; wild-type human PD-1
Source text: The gene of human PD-1 (wild-type) or substituted human PD-1 in which regions 1 to 8 as shown in FIG. 2A were replaced with mouse sequences and a gene of fluorescent protein such as GFP were co-expressed in a cell line (such as DO11.10 T cell hybridoma or HEK293T) by means of a vector ligating the genes with IRES sequences. The expression level of PD-1 on this cell line is correlated with the expression level of fluorescent protein such as GFP. Anti-PD-1 antibody was bound to the PD-1/GFP expressing cells, and the bound antibody was detected with a secondary antibody labeled with a different fluorescent dye. Briefly, PD-1-expressing cells were seeded in V-shaped bottom 96-well plates at 1×10⁵ cells/well. To each cell pellet, 50 μl of anti-human PD-1 antibody adjusted to 5 μg/ml was added and mixed. The mixture was incubated at 4° C. for 15 minutes. After washing, BV421-labeled anti-mouse IgG antibody or BV421-labeled anti-human IgG antibody, each adjusted to 5 μg/ml, was added in 50 μl. The mixture was incubated at 4° C. for 15 minutes. […] The fluorescence intensity of the filtrate was measured with a flow cytometer. The thus obtained fluorescence intensity can be rephrased as the binding capacity of anti-human PD-1 antibody to human PD-1 (wild-type or substituted). […] Binding characteristics to R143A point mutant or substituted Mouse PD-1 (hu38-48) were also analyzed in the same manner.

[2] = molecular target: T1, substituted human PD-1, domain #1 …; assay: flow cytometry on cells expressing substituted human PD-1
Source text: (§1) These sub-groups of antibodies are characterized by a common nature that they bind to domain #6 and domain #7, and are distinguished from known antibodies.
(§2) The gene of human PD-1 (wild-type) or substituted human PD-1 in which regions 1 to 8 as shown in FIG. 2A were replaced with mouse sequences and a gene of fluorescent protein such as GFP were co-expressed in a cell line (such as DO11.10 T cell hybridoma or HEK293T) by means of a vector ligating the genes with IRES sequences. The expression level of PD-1 on this cell line is correlated with the expression level of fluorescent protein such as GFP. Anti-PD-1 antibody was bound to the PD-1/GFP expressing cells, and the bound antibody was detected with a secondary antibody labeled with a different fluorescent dye. Briefly, PD-1-expressing cells were seeded in V-shaped bottom 96-well plates at 1×10⁵ cells/well. To each cell pellet, 50 μl of anti-human PD-1 antibody adjusted to 5 μg/ml was added and mixed. The mixture was incubated at 4° C. for 15 minutes. After washing, BV421-labeled anti-mouse IgG antibody or BV421-labeled anti-human IgG antibody, each adjusted to 5 μg/ml, was added in 50 μl. The mixture was incubated at 4° C. for 15 minutes. After washing, cells were suspended in 200 μl of buffer, and passed through a 70 μm filter. The fluorescence intensity of the filtrate was measured with a flow cytometer. The thus obtained fluorescence intensity can be rephrased as the binding capacity of anti-human PD-1 antibody to human PD-1 (wild-type or substituted). […] Binding characteristics to R143A point mutant or substituted Mouse PD-1 (hu38-48) were also analyzed in the same manner.

[3] = molecular target: T2, substituted human PD-1, domain #6 …; assay: as above
Source text: as §1, §2

[4] = molecular target: T3, substituted human PD-1, domain #7 …; assay: as above
Source text: as §1, §2

binding result [1]	binding result [2]	binding result [3]	binding result [4]	Binder
binds	–	–	–	mouse HM266 (antibody, mouse IgG2a, kappa, V domains shown, Mouse anti-human PD-1 monoclonal antibody (mouse IgG)) VH: QVQLQQSGPELVKPGASVKMSCKASGYTFTSYYIQWVKQRPGQGLEWIGWIYPGDGSSKYNEKFKGKTTLTADKSSSTAYMLLSSLTSEDSGIYFCASYYGSSFDYWGQGTTLTVSS VL: DIQMTQTTSSLSASLGDRVTISCRASQDISNYLNWYQQKPDGTVKFLIYYSSRLHSGVPSRFSGSGSGTDYSLTISNLEQEDIATYFCQQGSTLPFTFGGGTKLEIKR
–	no binding (tested: 5 µg/ml)	no binding (tested: 5 µg/ml)	no binding (tested: 5 µg/ml)	HM624 (antibody, V domains shown) VH: EVLLQQSGPELVQPGTSVKIFCKASGYTFTDYNIDWVKQSHGKSHEWIGDIDPNNGGTVYNQKFKGKATLTVDKSSTTAYMELRSLTSEDTAVYYCTRWRGAMDYWGRGTSVTVSS VL: DIQMTQTTSSLSASLGDRVTISCRASQDVSNYLNWYQQKPDGTVKLLIYDTSKLHSGVPSRFSGSGSGTDYSLTIRDPDQEDIATYFCQQGHTLPWTFGGGTKLEIRR
